Data as given in patent US20160244525A1 (Genentech, published 2016).

T1: FGFR3-IIIc (human, UniProt P22607 23-375, limits assumed)
T1 construct: also called human FGFR3-IIIc
T1 sequence: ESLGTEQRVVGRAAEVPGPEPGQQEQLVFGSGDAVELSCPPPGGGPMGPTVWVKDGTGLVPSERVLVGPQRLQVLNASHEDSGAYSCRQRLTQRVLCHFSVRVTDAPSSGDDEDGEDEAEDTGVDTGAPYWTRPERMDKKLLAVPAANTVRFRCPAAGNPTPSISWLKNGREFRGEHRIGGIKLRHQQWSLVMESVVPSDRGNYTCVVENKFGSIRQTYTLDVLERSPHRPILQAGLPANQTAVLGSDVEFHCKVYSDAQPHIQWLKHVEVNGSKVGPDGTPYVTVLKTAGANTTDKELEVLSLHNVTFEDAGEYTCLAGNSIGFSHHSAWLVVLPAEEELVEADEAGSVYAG

T2: FGFR2-IIIb (D2D3) (human)
T2 construct: also called human FGFR2-IIIb ECD (residue 140-369)
T2 chain: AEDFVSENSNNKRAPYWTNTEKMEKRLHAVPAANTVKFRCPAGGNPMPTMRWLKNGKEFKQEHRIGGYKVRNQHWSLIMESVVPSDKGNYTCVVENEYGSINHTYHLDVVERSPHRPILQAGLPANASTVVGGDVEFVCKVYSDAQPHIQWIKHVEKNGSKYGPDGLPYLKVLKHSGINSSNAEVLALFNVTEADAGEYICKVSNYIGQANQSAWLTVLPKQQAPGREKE

T3: FGFR1-IIIb (human, UniProt P11362-19 22-376, limits assumed)
T3 construct: Soluble FGFR antigen in SPR
T3 sequence (looked up): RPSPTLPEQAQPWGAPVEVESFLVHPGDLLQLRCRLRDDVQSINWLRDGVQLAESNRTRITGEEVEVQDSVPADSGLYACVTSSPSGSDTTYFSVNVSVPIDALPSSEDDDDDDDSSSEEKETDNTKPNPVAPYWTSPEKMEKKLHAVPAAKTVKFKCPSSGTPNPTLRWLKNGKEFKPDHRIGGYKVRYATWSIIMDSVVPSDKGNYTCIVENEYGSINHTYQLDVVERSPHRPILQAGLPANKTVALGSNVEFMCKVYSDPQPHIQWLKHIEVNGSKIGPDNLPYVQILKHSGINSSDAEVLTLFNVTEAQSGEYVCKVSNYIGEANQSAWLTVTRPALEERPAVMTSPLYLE

T4: FGFR4 (human, UniProt P22455 22-369, limits assumed)
T4 construct: also called human FGFR4; FGFR4-His
T4 sequence (looked up): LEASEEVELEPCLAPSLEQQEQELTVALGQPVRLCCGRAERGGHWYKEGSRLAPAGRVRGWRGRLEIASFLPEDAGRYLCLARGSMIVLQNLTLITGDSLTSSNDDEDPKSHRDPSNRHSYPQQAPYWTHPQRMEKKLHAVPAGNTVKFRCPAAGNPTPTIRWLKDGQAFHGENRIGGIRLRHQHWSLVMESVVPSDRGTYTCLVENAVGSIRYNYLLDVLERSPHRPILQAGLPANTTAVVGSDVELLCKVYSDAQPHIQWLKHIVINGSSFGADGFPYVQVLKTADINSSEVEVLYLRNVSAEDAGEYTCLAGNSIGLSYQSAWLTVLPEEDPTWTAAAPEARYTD

T5: FGFR4-Fc (human, UniProt P22455 22-369)
T5 sequence (looked up): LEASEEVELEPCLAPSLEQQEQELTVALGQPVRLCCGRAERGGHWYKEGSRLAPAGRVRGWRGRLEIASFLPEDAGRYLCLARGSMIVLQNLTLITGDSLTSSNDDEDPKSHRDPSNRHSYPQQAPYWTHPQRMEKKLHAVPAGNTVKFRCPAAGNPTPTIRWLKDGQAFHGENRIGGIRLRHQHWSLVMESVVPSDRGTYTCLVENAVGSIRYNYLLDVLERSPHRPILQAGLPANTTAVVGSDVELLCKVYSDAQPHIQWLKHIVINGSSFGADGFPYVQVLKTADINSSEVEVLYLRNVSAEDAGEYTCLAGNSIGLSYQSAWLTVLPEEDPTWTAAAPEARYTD

T6: FGFR4-6xHis (human, UniProt P22455 22-369, limits assumed)
T6 sequence: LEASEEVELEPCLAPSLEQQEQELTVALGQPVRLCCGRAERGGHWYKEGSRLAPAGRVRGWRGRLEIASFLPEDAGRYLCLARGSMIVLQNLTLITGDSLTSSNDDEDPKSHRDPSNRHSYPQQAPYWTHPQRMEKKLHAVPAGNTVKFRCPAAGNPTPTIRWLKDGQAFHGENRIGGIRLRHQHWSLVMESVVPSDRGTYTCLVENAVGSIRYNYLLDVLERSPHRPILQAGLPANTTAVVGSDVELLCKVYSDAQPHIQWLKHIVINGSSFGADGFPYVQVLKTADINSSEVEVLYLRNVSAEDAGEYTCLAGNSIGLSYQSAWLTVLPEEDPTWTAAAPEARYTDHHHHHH


Columns and labels:
FGFR3-IIIc [1] = biological target: T1, FGFR3-IIIc; test: blocking ELISA: FGFR3-IIIc-Fc captured on an anti-human Fc plate, antibody titrated, FGF-1 (with heparin) is the blocked ligand, bound FGF-1 read as OD450
Method: (§1) The plate was washed 5 times before being added with the antibody and FGF ligand mixtures, which was prepared as 49 μL 100 ng/mL FGF ligand, 1 μL 25 mg/mL Heparin (Sigma-Aldrich) and 50 μL antibody dilutions. After shaking at RT for 2 h, the plate was washed 5 times. Bound ligand was detected by subsequent incubations at RT with 0.5 μg/mL biotinylated anti-FGF antibodies (R&D Biosystems) for 0.5 h, 1:2,500-diluted Streptavidin-HRP (Invitrogen) for 0.5 h and the TMB substrate until enough color development.

FGFR3-IIIc [2] = biological target: T1, FGFR3-IIIc; test: SPR (Biacore T100), IgG captured by anti-human Fc, FGFR flowed
Method: (§2) A saturated amount of anti-human Fc monoclonal antibody was immobilized onto a CM5 biosensor chip by following the product instructions. […] FGFR antigens of various concentrations were injected at a flow rate 30 μL/min. After each binding cycle, flow cells were regenerated using 3M MgCl₂. Kinetic analyses were performed using the T100 evaluation software to obtain the kinetic and affinity constants.

FGFR2-IIIb (D2D3) = biological target: T2, FGFR2-IIIb (D2D3); test: SPR (Biacore)
FGFR2-IIIc [3] = biological target: T7, FGFR2-IIIc (human, UniProt P21802 22-377); test: blocking ELISA: FGFR2-IIIc-Fc captured on an anti-human Fc plate, antibody titrated, FGF-1 (with heparin) is the ligand, bound FGF-1 read as OD450
T7 construct: also called human FGFR2-IIIc; FGFR2-IIIc-His
Method: as §1

FGFR3-IIIc [4] = biological target: T1, FGFR3-IIIc; test: SPR
Method: as §2
(§3) 1.3 variants were determined by capturing FGFR4-Fc and flowing the antibody Fab fragments (Table 12).

FGFR1-IIIb = biological target: T3, FGFR1-IIIb; test: SPR
Method: as §2, §3

FGFR4 = biological target: T4, FGFR4; test: blocking ELISA: FGFR4-Fc captured on an anti-human Fc plate, antibody titrated, FGF-19 (with heparin) is the ligand, bound FGF-19 read as OD450
Method: as §1

FGFR4-Fc = biological target: T5, FGFR4-Fc; test: SPR, FGFR4-Fc captured, Fab flowed; FGFR4-Fc captured, Fab flowed
Method: Later, the KD for the 2B. 1.3 variants were determined by capturing FGFR4-Fc and flowing the antibody Fab fragments (Table 12).

FGFR3-IIIc [5] = biological target: T1, FGFR3-IIIc; test: surface plasmon resonance (Biacore)
FGFR2-IIIc [6] = biological target: T7, FGFR2-IIIc; test: SPR
Method: as §2, §3

FGFR4-6xHis = biological target: T6, FGFR4-6xHis; test: SPR, IgG captured, FGFR4-6xHis flowed
Method: as §2, §3

FGFR2-IIIc [7] = biological target: T7, FGFR2-IIIc; test: SPR (Biacore T100), IgG captured by anti-human Fc, FGFR flowed
Method: as §2

FGFR2-IIIc [8] = biological target: T7, FGFR2-IIIc; test: blocking ELISA: FGFR2-IIIc-Fc captured on an anti-human Fc plate, antibody titrated, FGF-1 (with heparin) is the blocked ligand, bound FGF-1 read as OD450
Method: as §1

T7 sequence (P21802 22-377 limits assumed): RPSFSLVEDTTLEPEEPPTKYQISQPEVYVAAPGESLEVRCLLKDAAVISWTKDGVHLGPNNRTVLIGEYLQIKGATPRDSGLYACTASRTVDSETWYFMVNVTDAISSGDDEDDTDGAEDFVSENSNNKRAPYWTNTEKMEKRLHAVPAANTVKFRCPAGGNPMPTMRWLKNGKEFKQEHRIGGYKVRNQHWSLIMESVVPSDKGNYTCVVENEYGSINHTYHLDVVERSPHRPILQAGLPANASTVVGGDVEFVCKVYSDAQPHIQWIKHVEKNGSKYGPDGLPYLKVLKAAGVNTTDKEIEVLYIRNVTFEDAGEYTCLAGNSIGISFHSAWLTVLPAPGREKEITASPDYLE

Binder	IC50 (read off the curve) (FGFR3-IIIc [1]) [nM]	Kd (FGFR3-IIIc [2]) [nM]	binding result (FGFR2-IIIb (D2D3))	binding result (FGFR2-IIIc [3])	Kd (FGFR3-IIIc [4]) [nM]	binding result (FGFR1-IIIb)	binding result (FGFR4)	Kd (FGFR4-Fc) [nM]	Kd (FGFR3-IIIc [5]) [nM]	Kd (FGFR2-IIIc [6]) [nM]	Kd (FGFR4-6xHis) [nM]	Kd (FGFR2-IIIc [7]) [nM]	Kd (FGFR2-IIIb (D2D3)) [nM]	IC50 (read off the curve) (FGFR2-IIIc [8]) [nM]
R3Mab (antibody, human IgG1, kappa, V domains shown, IgG in SPR; also called parental anti-FGFR3 antibody) VH: EVQLVESGGGLVQPGGSLRLSCAASGFTFTSTGISWVRQAPGKGLEWVGRIYPTNGSTNYADSVKGRFTISADTSKNTAYLQMNSLRAEDTAVYYCARTYGIYDLYVDYTEYVMDYWGQGTLVTVSS VL: DIQMTQSPSSLSASVGDRVTITCRASQDVDTSLAWYKQKPGKAPKLLIYSASFLYSGVPSRFSGSGSGTDFTLTISSLQPEDFATYYCQQSTGHPQTFGQGTKVEIKR	2 to 3	0.61	no binding (tested: 200 nM)	no binding (tested: 128 nM)	0.61	no binding	no binding (tested: 500 nM)	–	–	–	–	–	–	–
2B.1.1 (antibody, human IgG1, kappa, V domains shown, Full IgG1/kappa chains) VH: EVQLVESGGGLVQPGGSLRLSCAASGFTFTSTGISWVRQAPGKGLEWVGRYWAWDGSTNYADSVKGRFTISADTSKNTAYLQMNSLRAEDTAVYYCARTYGIYDLYVDYTEYVMDYWGQGTLVTVSS VL: DIQMTQSPSSLSASVGDRVTITCRASQDVDTSLAWYKQKPGKAPKLLIYSASFLYSGVPSRFSGSGSGTDFTLTISSLQPEDFATYYCQQSTGHPQTFGQGTKVEIKR	–	–	–	–	–	no binding	–	–	0.0663	2.8	2.8	–	–	–

Results, then the binder that gave them:

IC50 (read off the curve) (FGFR3-IIIc [1]) [nM]	Kd (FGFR3-IIIc [2]) [nM]	binding result (FGFR2-IIIb (D2D3))	binding result (FGFR2-IIIc [3])	Kd (FGFR3-IIIc [4]) [nM]	binding result (FGFR1-IIIb)	binding result (FGFR4)	Kd (FGFR4-Fc) [nM]	Kd (FGFR3-IIIc [5]) [nM]	Kd (FGFR2-IIIc [6]) [nM]	Kd (FGFR4-6xHis) [nM]	Kd (FGFR2-IIIc [7]) [nM]	Kd (FGFR2-IIIb (D2D3)) [nM]	IC50 (read off the curve) (FGFR2-IIIc [8]) [nM]	Binder
–	–	–	–	–	–	–	32	–	–	–	–	–	–	Fab fragment of Mab 2B.1.3 (Fab, V domains shown, Fab; also called 2B.1.3 Fab; Fab 2B.1.3) VH: EVQLVESGGGLVQPGGSLRLSCAASGFTFTSTGISWVRQAPGKGLEWVGRTHLGDGSTNYADSVKGRFTISADTSKNTAYLQMNSLRAEDTAVYYCARTYGIYDLYVDYTEYVMDYWGQGTLVTVSS VL: DIQMTQSPSSLSASVGDRVTITCRASQDVDTSLAWYKQKPGKAPKLLIYSASFLYSGVPSRFSGSGSGTDFTLTISSLQPEDFATYYCQQSTGHPQTFGQGTKVEIKR
2 to 3	0.07	–	–	0.07	no binding	–	–	0.0834	2	–	2	0.71	~5	2B.1.3 (antibody, human IgG1, kappa, V domains shown, Full IgG1/kappa chains; also called Mab 2B.1.3) VH: EVQLVESGGGLVQPGGSLRLSCAASGFTFTSTGISWVRQAPGKGLEWVGRTHLGDGSTNYADSVKGRFTISADTSKNTAYLQMNSLRAEDTAVYYCARTYGIYDLYVDYTEYVMDYWGQGTLVTVSS VL: DIQMTQSPSSLSASVGDRVTITCRASQDVDTSLAWYKQKPGKAPKLLIYSASFLYSGVPSRFSGSGSGTDFTLTISSLQPEDFATYYCQQSTGHPQTFGQGTKVEIKR
